Reference: PMC6330308, “Light-Induced Thiol Oxidation of Recoverin Affects Rhodopsin Desensitization” (Frontiers in Molecular Neuroscience, 2018)
Residue numbers refer to the chain shown, from its start.

T1: GRK1 (rhodopsin kinase) (bovine (endogenous in ROS), UniProt P28327 1-561)
T1 sequence (looked up): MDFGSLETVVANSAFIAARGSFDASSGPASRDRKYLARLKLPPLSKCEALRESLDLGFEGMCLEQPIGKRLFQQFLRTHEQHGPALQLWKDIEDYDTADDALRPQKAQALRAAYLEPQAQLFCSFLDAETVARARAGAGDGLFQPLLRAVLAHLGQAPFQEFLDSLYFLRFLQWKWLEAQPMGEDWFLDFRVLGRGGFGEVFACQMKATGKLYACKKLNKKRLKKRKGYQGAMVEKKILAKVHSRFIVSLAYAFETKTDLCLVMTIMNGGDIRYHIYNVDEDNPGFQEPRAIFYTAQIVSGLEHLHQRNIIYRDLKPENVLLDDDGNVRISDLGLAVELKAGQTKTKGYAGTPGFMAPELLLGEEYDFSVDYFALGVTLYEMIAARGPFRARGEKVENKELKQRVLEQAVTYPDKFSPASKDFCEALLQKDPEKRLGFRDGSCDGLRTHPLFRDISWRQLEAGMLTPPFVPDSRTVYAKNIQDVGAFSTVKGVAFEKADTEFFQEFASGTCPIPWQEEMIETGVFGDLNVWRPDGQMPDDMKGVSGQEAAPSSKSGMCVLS

T2: Oxidized monomer of recombinant wild type recoverin (bovine, UniProt P21457 2-202, N-terminal myristoyl group; C39 thiol oxidized (sulfenic/sulfinic acid; Figure 9 legend: C39 converted into sulfinic acid))
T2 construct: recoverin, bovine, recombinant wild type, myristoylated, monomer with oxidized C39; also called OmRec; thiol-oxidized monomer of recoverin; source: prepared from RmRec by incubation with 0.005% H2O2 at 30°C for 5 h, separated by gel-filtration (Superdex 75)
T2 sequence: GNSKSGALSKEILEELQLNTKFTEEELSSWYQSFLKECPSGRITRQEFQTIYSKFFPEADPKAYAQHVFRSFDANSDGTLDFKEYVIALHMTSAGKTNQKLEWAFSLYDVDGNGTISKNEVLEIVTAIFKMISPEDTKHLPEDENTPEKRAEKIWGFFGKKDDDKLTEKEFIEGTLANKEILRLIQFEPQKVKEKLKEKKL

T3: Recombinant myristoylated bovine recoverin (reduced monomer) (bovine, UniProt P21457 2-202, N-terminal myristoyl group (degree of myristoylation more than 95%))
T3 construct: recoverin, bovine, recombinant wild type, myristoylated, C39 thiol reduced; Myristoylation implies that the initiator Met is removed and Gly2 carries the myristoyl group (surmised); also called RmRec; reduced monomer of recombinant wild type recoverin; source: recombinant, prepared according to previously published procedure (Zernii et al., 2011)
T3 sequence: T2 sequence

B1: Recoverin mutant C39D (natural protein, bovine)
chain: T2 sequence with C38D
modifications: N-terminal myristoyl group (degree of myristoylation more than 95%)
B2: N-terminal fragment of GRK1 (amino acids M1-S25) fused with glutathione-S-transferase (domain or fragment, UniProt P28327 1-25, looked up)
chain: MDFGSLETVVANSAFIAARGSFDAS
notes: GRK1 (rhodopsin kinase), fragment M1-S25; also called 1-25GRK1; 1-25RK; source: obtained according to previously published procedure (Grigoriev et al., 2012)
B3: N-terminal domain of GRK1 (amino acids Met1-Gly183) fused with glutathione-S-transferase (domain or fragment, UniProt P28327 1-183, looked up)
chain: MDFGSLETVVANSAFIAARGSFDASSGPASRDRKYLARLKLPPLSKCEALRESLDLGFEGMCLEQPIGKRLFQQFLRTHEQHGPALQLWKDIEDYDTADDALRPQKAQALRAAYLEPQAQLFCSFLDAETVARARAGAGDGLFQPLLRAVLAHLGQAPFQEFLDSLYFLRFLQWKWLEAQPMG
notes: GRK1 (rhodopsin kinase), N-terminal domain, amino acids Met1-Gly183; also called N-GRK1; N-terminal domain of rhodopsin kinase; source: obtained according to previously published procedure (Grigoriev et al., 2012)

Tests used:
[1] = target: N-terminal fragment of GRK1 (amino acids M1-S25) fused with glutathione-S-transferase (UniProt P28327); assay: SPR; GST-fused N-GRK1 or 1-25GRK1 immobilised by amine coupling on ProteOn GLH chip; recoverin forms 1-40 uM as analyte; 25°C; 10 mM HEPES, 150 mM NaCl, 0.05% TWEEN 20, pH 7.4, 1 mM CaCl2, 2 mM MgCl2; global fit to heterogeneous ligand model
[2] = target: N-terminal domain of GRK1 (amino acids Met1-Gly183) fused with glutathione-S-transferase (UniProt P28327); assay: as above
[3] = target: GRK1 (rhodopsin kinase) (bovine (endogenous in ROS)) (UniProt P28327)
GRK1 (rhodopsin kinase) = target: T1, GRK1 (rhodopsin kinase); assay: cell-based or functional assay
[4] = target: T2, Oxidized monomer of recombinant wild …; assay: SPR; GST-fused N-GRK1 or 1-25GRK1 immobilised by amine coupling on ProteOn GLH chip; recoverin forms 1-40 uM as analyte; 25°C; 10 mM HEPES, 150 mM NaCl, 0.05% TWEEN 20, pH 7.4, 1 mM CaCl2, 2 mM MgCl2; global fit to heterogeneous ligand model; conditions: both partners purified
Recoverin mutant C39D = target: B1; assay: as above; conditions: both partners purified
[5] = target: T3, Recombinant myristoylated bovine …; assay: as above; conditions: both partners purified

Row | Kd [4] [µM] | Kd (Recoverin mutant C39D) [µM] | Kd [5] [µM] | Molecule | also measured
1 | – | – | – | Disulfide dimer of recombinant wild type recoverin (from UniProt P21457 2-202) (complex) | Kd [1]: 31.2 µM; Kd [2]: 31.3 µM; inhibition of GRK1 in rhodopsin phosphorylation assay, 20 uM dRec, 0.01 uM free Ca2+ [3]: 40%; inhibition of GRK1 in rhodopsin phosphorylation assay, 20 uM dRec, 200 uM free Ca2+ [3]: 70%
2 | – | – | – | B1 | inhibition of GRK1 in rhodopsin phosphorylation assay, 40 uM C39D, 200 uM free Ca2+; decline of inhibitory efficiency against RmRec (GRK1 (rhodopsin kinase)): ~2 fold
3 | 16 | 31.3 | 10.5 | B2 | –
4 | 31.3 | 50.2 | 5.35 | B3 | –
